Target: SARS-CoV-2 spike protein (SARS-CoV-2, UniProt P0DTC2 14-1213)

B1: M4-4 (antibody, V domains shown)
VH: EVQLVESGGGLVKPGGSLRLSCAASGFTFSSRGMSWVRQAPGKGLEWVSTISFGDIYTYYPDSVKGRFTISRDNAKNSLYLQMNSLRAEDTAVYYCARPNDGYFDYWGQGTLVTVSS
VL: DIVMTQSPATLSVSPGERATLSCKASQDVSTDVAWYQQKPGQAPRLLIYWASTRHTGVPDRFSGSGSGTDFTLTISSLQSEDFAVYYCQQHYSTPWTFGGGTKVEIKR
dissociation constant against REGN10933 and REGN10987: ~10 fold
